From patent publication US11795460B2, “Compositions and methods for TTR gene editing and treating ATTR amyloidosis” (Intellia Therapeutics, Inc., priority 2017, dated 2023)
Strand notation (5' to 3'): a small letter for the sugar, then the base; units joined by * are phosphorothioate-linked, units joined directly phosphodiester-linked; [ ] holds rarer units or linkages, { } end groups; capitals alone tell only the bases. m = 2'-O-methyl; r = 2'-OH (RNA)

Test system: human TTR
Test: Serum human TTR ELISA in humanized TTR mice (Table 26)
Type: in vivo, mouse
Details: for Serum TTR(% TSS): Table 26, serum human TTR, LNP Formulation Numbers 6-16, 1 mg/kg (total RNA content)
Protocol: Blood was collected and the serum was isolated as indicated. The total mouse TTR serum levels were determined using a Mouse Prealbumin (Transthyretin) ELISA Kit (Aviva Systems Biology, Cat. OKIA00111); rat TTR serum levels were measured using a rat specific ELISA kit (Aviva Systems Biology catalog number OKIA00159); human TTR serum levels were measured using a human specific ELISA kit (Aviva Systems Biology catalog number OKIA00081); each according to manufacture's protocol. Briefly, sera were serial diluted with kit sample diluent to a final dilution of 10,000-fold, or 5,000-fold when measuring human TTR in mouse sera. 100 ul of the prepared standard curve or diluted serum samples were added to the ELISA plate, incubated for 30 minutes at room temperature then washed 3 times with provided wash buffer. 100 uL of detection antibody was then added to each well and incubated for 20 minutes at room temperature followed by 3 washes. 100 uL of substrate is added then incubated for 10 minutes at room temperature before the addition of 100 uL stop solution. The absorbance of the contents was measured on the Spectramax M5 plate reader with analysis using SoftmaxPro version 7.0 software. Serum TTR levels were quantitated off the standard curve using 4 parameter logistic fit and expressed as ug/mL of serum or percent knockdown relative control (vehicle treated) animals.
The level of human TTR in serum was measured in the mice provided formulation numbers 6-8, 10-13, and 15-16. FIG. 14A is a repeat of FIG. 13 provided for comparison purposes. Knockdown of serum human TTR was detected for each formulation tested, which correlated with the amount of editing detected in liver (See FIG. 14A vs 14B, Table 26).
In another set of experiments, humanized TTR mice were dosed with LNP formulations across a range of doses with guides G000480, G000488, G000489 and G000502. The formulations contained Cas9 mRNA (SEQ ID NO: 1) in a 1:1 ratio by weight to the guide. The LNPs contained Lipid A, Cholesterol, DSPC, and PEG2k-DMG in a 50:38:9:3 molar ratio, respectively, and having a N:P ratio of 6. Dosing was at 1, 0.3, 0.1, or 0.03 mg/kg (n=5/group). The LNPs were prepared using the cross-flow procedure described above and purified and concentrated using PD-10 columns and Amicon centrifugal filter units, respectively. Liver editing results were determined using primers designed to amplify the region of interest for NGS analysis and serum human TTR levels were measured as described above. Results for liver editing are shown in FIG. 26A and serum human TTR levels in FIG. 26B-C.
(§1) In another set of experiments, humanized TTR mice were dosed with LNP formulations across a range of doses with guides G000481, G000482, G000486 and G000499. The formulations contained Cas9 mRNA (SEQ ID NO: 1) in a 1:1 ratio by weight to the guide. […] Dosing was at 1, 0.3, or 0.1 mg/kg (n=5/group). The LNPs were prepared using the cross-flow procedure described above and purified and concentrated using PD-10 columns and Amicon centrifugal filter units, respectively. Liver editing results were determined using primers designed to amplify the region of interest for NGS analysis and serum human TTR levels were measured as described above. Results for liver editing are shown in FIG. 27A and serum human TTR levels in FIG. 27B-C.
as §1, with “guides G000480,” for “guides”, “G000486, G000499” for “G000482, G000486”, “G000502.” for “G000499.”, “1:2” for “1:1”, “Results for liver editing are shown in FIG. 27A and serum human TTR levels in FIG. 27B-C.” left out

[1] = 1, 0.3, 0.1, or 0.03 mg/kg, Cas9 mRNA (SEQ ID NO: 1) 1:1 by weight to guide, FIG. 26B-C
[2] = 1, 0.3, or 0.1 mg/kg, Cas9 mRNA (SEQ ID NO: 1) 1:2 by weight to guide, FIG. 28B-C
[3] = 1, 0.3, or 0.1 mg/kg, Cas9 mRNA (SEQ ID NO: 1) 1:1 by weight to guide, FIG. 27B-C

| Molecule | Serum human TTR levels, dose response [1] | Serum human TTR levels, dose response [2] | Serum human TTR levels, dose response [3] | Serum TTR(% TSS) |
| --- | --- | --- | --- | --- |
| G000502: TTR Cyno specific sgRNA modified sequence, SEQ ID No. 114; guide sequence of CR000689; cross homologous between mouse and cyno (nucleic acid) guide: mA*mC*mA*rCrArArArUrArCrCrArGrUrCrCrArGrCrGrGrUrUrUrUrArGrAmGmCmUmAmGmAmAmAmUmAmGmCrArArGrUrUrArArArArUrArArGrGrCrUrArGrUrCrCrGrUrUrArUrCrAmAmCmUmUmGmAmAmAmAmAmGmUmGmGmCmAmCmCmGmAmGmUmCmGmGmUmGmCmU*mU*mU*mU | A dose response for both editing and serum TTR levels was evident | A dose response for both editing and serum TTR levels was evident |  |  |
| G000499: TTR sgRNA modified sequence, Human, SEQ ID No. 106; guide sequence of CR005303 (nucleic acid) guide: mU*mG*mA*rArUrCrCrArArGrUrGrUrCrCrUrCrUrGrArGrUrUrUrUrArGrAmGmCmUmAmGmAmAmAmUmAmGmCrArArGrUrUrArArArArUrArArGrGrCrUrArGrUrCrCrGrUrUrArUrCrAmAmCmUmUmGmAmAmAmAmAmGmUmGmGmCmAmCmCmGmAmGmUmCmGmGmUmGmCmU*mU*mU*mU |  | A dose response for both editing and serum TTR levels was evident | A dose response for both editing and serum TTR levels was evident | 8.39 |
| G000481: TTR sgRNA modified sequence, Human, SEQ ID No. 88; guide sequence of CR003345 (nucleic acid) guide: mU*mC*mU*rArGrArArCrUrUrUrGrArCrCrArUrCrArGrGrUrUrUrUrArGrAmGmCmUmAmGmAmAmAmUmAmGmCrArArGrUrUrArArArArUrArArGrGrCrUrArGrUrCrCrGrUrUrArUrCrAmAmCmUmUmGmAmAmAmAmAmGmUmGmGmCmAmCmCmGmAmGmUmCmGmGmUmGmCmU*mU*mU*mU |  | A dose response for both editing and serum TTR levels was evident | A dose response for both editing and serum TTR levels was evident | 10.52 |
| G000482: TTR sgRNA modified sequence, Human, SEQ ID No. 89; guide sequence of CR003365 (nucleic acid) guide: mU*mG*mU*rArGrArArGrGrGrArUrArUrArCrArArArGrGrUrUrUrUrArGrAmGmCmUmAmGmAmAmAmUmAmGmCrArArGrUrUrArArArArUrArArGrGrCrUrArGrUrCrCrGrUrUrArUrCrAmAmCmUmUmGmAmAmAmAmAmGmUmGmGmCmAmCmCmGmAmGmUmCmGmGmUmGmCmU*mU*mU*mU |  |  | A dose response for both editing and serum TTR levels was evident |  |
| G000489: TTR sgRNA modified sequence, Human, SEQ ID No. 96; guide sequence of CR003344 (nucleic acid) guide: mU*mU*mU*rGrArCrCrArUrCrArGrArGrGrArCrArCrUrGrUrUrUrUrArGrAmGmCmUmAmGmAmAmAmUmAmGmCrArArGrUrUrArArArArUrArArGrGrCrUrArGrUrCrCrGrUrUrArUrCrAmAmCmUmUmGmAmAmAmAmAmGmUmGmGmCmAmCmCmGmAmGmUmCmGmGmUmGmCmU*mU*mU*mU | A dose response for both editing and serum TTR levels was evident |  |  |  |
| G000486: TTR sgRNA modified sequence, Human, SEQ ID No. 93; guide sequence of CR003339 (nucleic acid) guide: mA*mC*mA*rCrArArArUrArCrCrArGrUrCrCrArGrCrArGrUrUrUrUrArGrAmGmCmUmAmGmAmAmAmUmAmGmCrArArGrUrUrArArArArUrArArGrGrCrUrArGrUrCrCrGrUrUrArUrCrAmAmCmUmUmGmAmAmAmAmAmGmUmGmGmCmAmCmCmGmAmGmUmCmGmGmUmGmCmU*mU*mU*mU |  | A dose response for both editing and serum TTR levels was evident | A dose response for both editing and serum TTR levels was evident |  |
| G000488: TTR sgRNA modified sequence, Human, SEQ ID No. 95; guide sequence of CR003346 (nucleic acid) guide: mA*mA*mA*rGrUrUrCrUrArGrArUrGrCrUrGrUrCrCrGrGrUrUrUrUrArGrAmGmCmUmAmGmAmAmAmUmAmGmCrArArGrUrUrArArArArUrArArGrGrCrUrArGrUrCrCrGrUrUrArUrCrAmAmCmUmUmGmAmAmAmAmAmGmUmGmGmCmAmCmCmGmAmGmUmCmGmGmUmGmCmU*mU*mU*mU | A dose response for both editing and serum TTR levels was evident |  |  |  |
| G000480: TTR sgRNA modified sequence, Human, SEQ ID No. 87; guide sequence of CR003353 (nucleic acid) guide: mA*mA*mA*rGrGrCrUrGrCrUrGrArUrGrArCrArCrCrUrGrUrUrUrUrArGrAmGmCmUmAmGmAmAmAmUmAmGmCrArArGrUrUrArArArArUrArArGrGrCrUrArGrUrCrCrGrUrUrArUrCrAmAmCmUmUmGmAmAmAmAmAmGmUmGmGmCmAmCmCmGmAmGmUmCmGmGmUmGmCmU*mU*mU*mU | A dose response for both editing and serum TTR levels was evident | A dose response for both editing and serum TTR levels was evident |  |  |
